Measured values as given in US20060057696A1, “Sugar chain synthases” (priority 2002, published 2006).

T1: PA-mST6Gal II (mouse ST6Gal II) (Mus musculus, UniProt Q76K27, R48S)
T1 construct: amino acids 31-524 in the case of mouse ST6Gal II; signal peptide of mouse immunoglobulin IgM (N); made in house; host or cells: COS-7 cells, transient expression of pcDSA-mST6Gal II; protein recovered from medium on IgG-Sepharose
T1 sequence (Q76K27 31-524 R48S): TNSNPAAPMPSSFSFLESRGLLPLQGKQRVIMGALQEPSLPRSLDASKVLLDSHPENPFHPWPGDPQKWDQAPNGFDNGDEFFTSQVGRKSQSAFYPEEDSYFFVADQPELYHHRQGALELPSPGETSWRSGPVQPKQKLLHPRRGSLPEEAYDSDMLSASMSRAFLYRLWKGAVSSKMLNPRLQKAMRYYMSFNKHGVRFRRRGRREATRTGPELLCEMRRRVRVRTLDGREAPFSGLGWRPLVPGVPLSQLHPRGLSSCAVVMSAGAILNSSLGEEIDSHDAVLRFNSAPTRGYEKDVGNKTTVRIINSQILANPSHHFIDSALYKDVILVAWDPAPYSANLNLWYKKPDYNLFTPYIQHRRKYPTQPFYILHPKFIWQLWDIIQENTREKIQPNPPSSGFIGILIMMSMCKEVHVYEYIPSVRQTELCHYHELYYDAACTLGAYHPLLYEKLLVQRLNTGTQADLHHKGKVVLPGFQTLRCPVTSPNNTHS

T2: PA-mST8Sia VI (Mus musculus, UniProt Q8K4T1)
T2 construct: amino acids 26-398 in the case of mouse ST8Sia VI; signal peptide of mouse immunoglobulin IgM (N); made in house; host or cells: COS-7 cells, transient expression of pcDSA-mST8Sia VI; protein recovered from medium on IgG-Sepharose
T2 sequence (Q8K4T1 26-398): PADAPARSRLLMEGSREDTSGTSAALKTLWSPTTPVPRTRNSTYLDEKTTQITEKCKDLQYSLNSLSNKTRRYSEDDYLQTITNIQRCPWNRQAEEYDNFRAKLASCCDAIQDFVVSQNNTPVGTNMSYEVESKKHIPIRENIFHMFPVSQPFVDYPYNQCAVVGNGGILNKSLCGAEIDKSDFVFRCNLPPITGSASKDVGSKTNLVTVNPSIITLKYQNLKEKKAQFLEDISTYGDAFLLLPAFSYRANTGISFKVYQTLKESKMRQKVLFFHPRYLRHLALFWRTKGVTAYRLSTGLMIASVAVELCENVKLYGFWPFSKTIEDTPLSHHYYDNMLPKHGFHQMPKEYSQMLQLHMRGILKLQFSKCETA

T3: mouse ST8Sia III (Mus musculus, UniProt Q64689)
T3 sequence (Q64689 1-380): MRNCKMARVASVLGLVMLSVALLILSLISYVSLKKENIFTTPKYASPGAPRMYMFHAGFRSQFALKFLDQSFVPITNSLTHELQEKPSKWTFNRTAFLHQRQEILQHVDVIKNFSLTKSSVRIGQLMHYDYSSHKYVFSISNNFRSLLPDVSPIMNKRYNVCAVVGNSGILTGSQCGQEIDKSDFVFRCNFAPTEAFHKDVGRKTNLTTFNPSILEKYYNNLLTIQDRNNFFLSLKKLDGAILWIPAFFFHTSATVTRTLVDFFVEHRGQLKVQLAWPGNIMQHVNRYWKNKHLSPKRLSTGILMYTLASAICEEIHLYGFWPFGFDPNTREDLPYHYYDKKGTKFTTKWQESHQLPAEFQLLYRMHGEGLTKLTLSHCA


Key:
Format in all cases: biochemical
[1] = molecular target: T1, PA-mST6Gal II (mouse ST6Gal II); assay: Sialyltransferase activity of PA-mST6Gal II toward acceptor substrates; details: PA-mST6Gal II; incorporation with Galβ1,4GlcNAc taken as 100; 0.5 mg/ml glycolipids, 1 mg/ml glycoproteins and oligosaccharides
Description: Using each expression vector and lipofectamine (Invitrogen), transient expression was carried out in COS-7 cells (Kojima, N. et al. (1995) FEBS Lett. 360, 1-4). The proteins of the present invention secreted from the cells into which each expression vector had been introduced were named as PA-hST6Gal II (human) and PA-mST6Gal II (mouse). PA-hST6Gal II and PA-mST6Gal II were adsorbed to IgG-Sepharose (Amersham Pharmacia Biotech), and were then recovered from medium. Sialyltransferase activity was measured as follows according to the method of Lee et al. (Lee, Y.-C. et al. (1999) J Biol. Chem. 274, 11958-11967). A reaction mixture (10 μl) containing 50 mM MES buffer (pH 6.0), 1 mM MgCl2, 1 mM CaCl2, 0.5% Triton CF-54, 100 μM CMP-[^14C]-NeuAc, a substrate sugar chain (which was added at 0.5 mg/ml in the case of glycolipids, and at 1 mg/ml in the case of glycoproteins or oligosaccharides), and a PA-hST6Gal II or PA-mST6Gal II suspension, was incubated at 37° C. for 3 to 20 hours. Thereafter, in the case of glycolipids, the reaction product was purified with a C-18 column (Sep-Pak Vac 100 mg; Waters) and the purified product was used as a sample. In the case of oligosaccharides or glycoproteins, the reaction product was directly used as a sample. Thus, the obtained sample was subjected to analysis. In the case of oligosaccharides or glycolipids, the sample was spotted on a silica gel 60 HPTLC plate (Merck), and it was then developed with a developing solvent consisting of 1-propanol:ammonia water:water=6:1:2.5 (for oligosaccharides), or a developing solvent consisting of chloroform:methanol: 0.02% CaCl2=55:45:10 (for glycolipids). In the case of glycoproteins, analysis was carried out by SDS-polyacrylamide gel electrophoresis. The obtained radioactivities were visualized with a BAS2000 radio image analyzer (Fuji Film) and then quantified.

PA-mST8Sia VI = molecular target: T2, PA-mST8Sia VI; assay: N-glycanase treatment of Fetuin sialylated with [14C]-NeuAc by PA-mST8Sia VI; details: sialylated by PA-mST8Sia VI with [14C]-NeuAc; shows incorporation into O-glycans
Description: (§1) In FIG. 4, Fetuin was [^14C]-NeuAc-incorporated by ST8Sia III or ST8Sia VI and then treated with N-glycanase. The [^14C]-NeuAc-incorporated Fetuin was treated with N-glycanase, and the treated product was analyzed by SDS-PAGE. Thereafter, it was visualized with a BAS2000 radio image analyzer.
(§2) It was found by an N-glycanase treatment that when Fetuin was used as a substrate, the majority of sialic acid, which was newly introduced by PA-mST8Sia VI, was incorporated into O-glycans (FIG. 4). That is, when Fetuin was sialylated by PA-mST8Sia VI with [^14C]-NeuAc, and the sialylated product was then treated with N-glycanase, which releases N-glycans from a peptide portion. The majority (82.7%) of radioactivity was still kept in the Fetuin after this treatment. […] On the other hand, the same experiment was carried out using mouse ST8Sia III, which used N-glycans of Fetuin as substrates.

mouse ST8Sia III = molecular target: T3, mouse ST8Sia III; assay: N-glycanase treatment of Fetuin sialylated with [14C]-NeuAc by mouse ST8Sia III
Description: as §1, §2

Molecule	Relative rate (%) Mouse ST6Gal II [1] [%]	radioactivity still kept in the Fetuin after N-glycanase treatment (PA-mST8Sia VI) [%]	radioactivity in Fetuin after N-glycanase treatment (in words) (mouse ST8Sia III)
Asialo- α1-Acid glycoprotein: desialylated α1-acid glycoprotein prepared at 80° C. for 1 hour in 0.02 N HCl	12.3		
Fetuin: glycoprotein acceptor substrate containing both O-glycans and N-glycans, purchased from Sigma	0	82.7	completely disappeared
Asialofetuin: asialo glycoprotein acceptor substrate purchased from Sigma	21.0		
Asialoovomucoid: desialylated ovomucoid prepared at 80° C. for 1 hour in 0.02 N HCl (protein, UniProt P01005 25-210, looked up, desialylated, desialylated ovomucoid prepared at 80° C. for 1 hour in 0.02 N HCl) Ovomucoid: AEVDCSRFPNATDKEGKDVLVCNKDLRPICGTDGVTYTNDCLLCAYSIEFGTNISKEHDGECKETVPMNCSSYANTTSEDGKVMVLCNRAFNPVCGTDGVTYDNECLLCAHKVEQGASVDKRHDGGCRKELAAVSVDCSEYPKPDCTAEDRPLCGSDNKTYGNKCNFCNAVVESNGTLTLSHFGKC	0		

Now from value to molecule:

Relative rate (%) Mouse ST6Gal II [1] [%]	radioactivity still kept in the Fetuin after N-glycanase treatment (PA-mST8Sia VI) [%]	radioactivity in Fetuin after N-glycanase treatment (in words) (mouse ST8Sia III)	Molecule
0			Galβ1,4Glcβ1-Cer [Lactosylceramide]
0			NeuAcα2,3Galβ1,4Glcβ1-Cer [GM3]
0.75			α1-Acid glycoprotein: glycoprotein acceptor substrate purchased from Sigma
0			Galβ1,3GalNAcβ1,4(NeuAcα2,3)Galβ1,4Glcβ1-Cer [GM1a]
0			Ovomucoid: glycoprotein acceptor substrate which contains only N-glycans (protein, UniProt P01005 25-210, looked up) Ovomucoid: AEVDCSRFPNATDKEGKDVLVCNKDLRPICGTDGVTYTNDCLLCAYSIEFGTNISKEHDGECKETVPMNCSSYANTTSEDGKVMVLCNRAFNPVCGTDGVTYDNECLLCAHKVEQGASVDKRHDGGCRKELAAVSVDCSEYPKPDCTAEDRPLCGSDNKTYGNKCNFCNAVVESNGTLTLSHFGKC
